Each block holds one molecule with its values, some of them ahead of it.
Assays:
[1] = target: murine Cμ4tp domain, recombinant (mouse); assay: SEC; analytical SE-HPLC, Superdex 200 Increase 10/300, PBS pH 7.4, 25 °C; 1 mg/mL Cµ4tp (DTT removed) and/or 0.5 mg/mL J chain (if not stated otherwise) incubated 24 h at room temperature
[2] = target: the molecule itself; assay: cross-linking; disulfide mapping of recombinant JC by cross-linking MS: denatured, alkylated with iodoacetamide, trypsin and Asp-N, HPLC-MS/MS, Kojak with disulfide as crosslinker
[3] = target: murine Cμ4tp domain, recombinant (mouse); assay: SEC; analytical SE-HPLC, Superdex 200 Increase 10/300, PBS pH 7.4, 25 °C; 1 mg/mL Cµ4tp (DTT removed) and/or 0.5 mg/mL J chain (if not stated otherwise) incubated 24 h at room temperature; remark: listed apart in the source
[4] = target: the molecule itself; assay: nonreducing SDS-PAGE and western blot of covalent assemblies; HEK293/HEK293T co-transfected with H-Cµ234tp and JC variants, 48 h; RIPA lysates with 10 mM NEM and TCA-precipitated supernatants; Halo ligands, anti-JC, anti-µ

stoichiometry N [1]: 2 chains
stoichiometry N (Cµ4tp2 dimers) [1]: 6
Molecule: murine Cμ4tp domain, recombinant (domain or fragment)

stoichiometry N (JC per (Cµ4tp2)5) [3]: 1
B1: murine Joining Chain wild type, recombinant (natural protein, mouse)
chain: MGDDEATILADNKCMCTRVTSRIIPSTEDPNEDIVERNIRIVVPLNNRENISDPTSPLRRNFVYHLSDVCKKCDPVEVELEDQVVTATQSNICNEDDGVPETCYMYDRNKCYTTMVPLRYHGETKMVQAALTPDSCYPD
notes: methionine added at position 1; murine joining chain (J chain), G22-D159 of the precursor; Heterogeneous native and non-native disulfides; largely unstructured by CD; also called JC; J chain
binding result [2]: binds

B2: Halo-tagged truncated µs variant lacking the variable and first constant domains (H-Cµ234tp) (domain or fragment, UniProt P01872 106-454, looked up)
chain: VAEMNPNVNVFVPPRDGFSGPAPRKSKLICEATNFTPKPITVSWLKDGKLVESGFTTDPVTIENKGSTPQTYKVISTLTISEIDWLNLNVYTCRVDHRGLTFLKNVSSTCAASPSTDILTFTIPPSFADIFLSKSANLTCLVSNLATYETLNISWASQSGEPLETKIKIMESHPNGTFSAKGVASVCVEDWNNRKEFVCTVTHRDLPSPQKKFISKPNEVHKHPPAVYLLPPAREQLNLRESATVTCLVKGFSPADISVQWLQRGQLLPQEKYVTSAPMPEPGAPGFYFTHSILTVTEEEWNSGETYTCVVGHEALPHLVTERTVDKSTGKPTLYNVSLIMSDTGGTCY
notes: secretory Ig µ heavy chain without the variable and first constant domains: Cµ2, Cµ3, Cµ4 and the tailpiece; the gene carries a signal peptide; Detected with anti-mouse IgM (µ chain); also called Halo-Cµ234tp; H-Cµ234tp WT; source: HEK293/HEK293T or HeLa-ERp44KO, transfected, in lysate or supernatant
stoichiometry N [4]: 6 H-Cµ234tp2 subunits (dimers)
